According to article PMC8229956:

Tests used:
[1] = molecular target: Oryza sativa TIR1 wild type with nuclear localisation signal (OsTIR1^WT-NLS) (Oryza sativa)
[2] = molecular target: Oryza sativa TIR1 wild type with nuclear localisation signal (OsTIR1^WT-NLS) (Oryza sativa); remark: listed apart in the source

Row | reduction in Rad52-AID-V5 protein level (anti-V5 immunoblot of total extract, normalised to tubulin) in cells expressing OsTIR1^WT in the absence of NAA, against rad52-AID-V5 cells with no OsTIR1 [1] | reduction in Mcm4-AID-V5 protein level (anti-V5 immunoblot of total extract, normalised to tubulin) in cells expressing OsTIR1^WT in the absence of NAA, against cells with no OsTIR1 [2] | Substance
1 | 14% | – | Rad52-AID-V5 (from UniProt P93830 1-229)
2 | – | 14% | Mcm4-AID-V5 (from UniProt P93830 1-229)
